US5480970A, “Metal chelators” (Resolution Pharmaceuticals, priority 1993, dated 1996)
Side-chain parts run from the residue outwards. [ ]: non-standard residue; d: D form. The star is where a group is joined. Picolinoyl = O=C(c1ccccn1)*; Nle = CCCC[C@H](N)C(=O)O; Chel = not defined here; Acm = CC(=O)NC*; For = O=C*

Key:
[1] = system: inflamed muscle (left leg), E. coli; test: In vivo uptake of Tc-99m chelates in inflamed vs non-inflamed muscle; design: species or system male Wistar rats; conditions: Inflam agent E. coli; for Inflam muscle / Uninfl muscle: time (min): RP-063 30, RP-056 45, IgG 120, others not given; for Infl:Uninfl: ratio inflamed to uninflamed muscle, time (min): RP-063 30, RP-056 45, IgG 120
Description: (§1) Rat inflammation studies were performed as follows. 2 male Wistar rats (Charles River, 150-200 g) were injected intramuscularly with zymosan, a yeast cell wall preparation (5 mg) or virulent E. coli (ATCC 25922, 0.1 ml of 0.5×10^9 organisms/ml) suspension into their left hindlegs 24 hours before imaging. Focal inflammation in the leg was visually detectable after 1 day. 1 mg (ca. 0.7 μMol) of the chelator was dissolved in 50 μL of dimethylsulfoxide and added to an ethanol-water mixture (1:1, 200 μL). An aliquot of Tc-99m tartarate (ca. 400 MBq) was added and transchelation allowed to proceed for 20 min. at 100° C. The Tc-99m chelate was purified by elution through a Sep Pak cartridge. The purified tracer solution was further diluted with saline to prepare an injectable (200 μL) containing about 100 μCi (3.7 MBq) of activity.
(§2) The rats were anaesthetized with somnitol (40 to 50 mg/kg), and the Tc-99m chelate solution (200 μL) was injected intravenously via the tail vein. Serial whole-body scintigrams were acquired for the first 5 minutes. Subsequently, further images were obtained at 30, 60, and 120 minutes. The rats were then killed with anaesthesia and samples of organs, urine, blood, inflamed muscle (left leg) and non-inflamed muscle (right leg) were weighted and counted in either a well-type gamma counter or in a gamma dose calibrator. The dose calculations were made based on assumption that the rat weighed 200 g and that the blood volume constituted 8% of body weight. Results are averages for two rats and are corrected for the residual dose in the tail.

neutrophil receptors = test: Neutrophil binding assay, competition with tritiated fMLP; conditions: competition with 15 nM tritiated fMLP, 10^6 rat neutrophils, 1 hour room temperature
Description: Rat peripheral neutrophils were prepared for binding assay as follows: blood was obtained by cardiac puncture and anticoagulated with acid- citrate dextrose (ACD) (10%). Red blood cells were removed by sedimentation on hydroxyethyl cellulose (1.1%) for 30 min at room temperature and leukocyte-rich supernatant layered onto 65% percol. […] The remaining neutrophils were resuspended in Hanks Buffered Salt Solution (HBSS) to the desired concentration. Final neutrophil preparation consisted of cells pooled from up to 10 animals, >90% neutrophils and >95% viable by Trypan Blue exclusion.
Binding affinity of the test peptides was assessed by competing off a constant concentration of tritiated fMLP of known affinity for neutrophil receptors. 10^6 neutrophils were added to polypropylene plates containing 15 nM tritiated fMLP and varying concentrations of unlabelled test peptides in a final volume of 150 μL HBSS. […] Filters were then placed in 6 ml scintillation vials, 5 ml of scintillation fluid added (Ecolume) and vials counted using a liquid scintillation counter. […] Specific binding was the total binding less non-specific binding which was the amount of residual radioactivity bound in the presence of 10 μM unlabelled fMLP.

[2] = In vivo biodistribution of Tc-99m chelates in rat inflammation studies; design: species or system male Wistar rats; conditions: for In vivo Distribution blood: Tc-99m chelate i.v. tail vein, average of two rats, time (min): RP-022 90, RP-043 88, RP-050 109, RP-063 30, RP-065 30, IgG 120, RP-049 not given; for In vivo Distribution GI tract / In vivo Distribution liver / In vivo Distribution kidney / In vivo Distribution urine: Tc-99m chelate i.v.; for In vivo Distribution GI tract / In vivo Distribution liver: time (min): RP-022 90, RP-043 88, RP-050 109, RP-063 30; for In vivo Distribution kidney: time (min): RP-022 90, RP-043 88, RP-050 109, RP-063 30, RP-049 not given; for In vivo Distribution urine: time (min): RP-022 90, RP-043 88, RP-050 109, RP-063 30, RP-065 30
Description: as §1, §2

(Pic-Gly-Cys(Acm)-Gly)-ε-NH-Lys(-Asp-Gly-OH)-Lys-Tyr-Nleu-Phe-Leu- Nleu-for (For-[Nle]LF[Nle]YKK([Gly-Cys(Acm)-Gly-Picolinoyl])DG-OH) [RP-056, ID No. 13]
Inflam muscle [1]: 0.143 % per gm
Uninfl muscle [1]: 0.041 % per gm
Infl:Uninfl [1]: 3.52
binding affinity for neutrophil receptors (neutrophil receptors): greater binding affinity for neutrophil receptors than native fMLP

(Pic-Gly-Cys(Acm)-Gly)-εNH-Lys(-Gly-OH)-Tyr-Nleu-Phe-Leu-Nleu-for (For-[Nle]LF[Nle]YK([Gly-Cys(Acm)-Gly-Picolinoyl])G-OH) [RP-050, ID NO: 12]
In vivo Distribution blood [2]: 3.436 % per organ
In vivo Distribution GI tract [2]: 25.777 % per organ
In vivo Distribution liver [2]: 20.866 % per organ
In vivo Distribution kidney [2]: 11.470 % per organ
In vivo Distribution urine [2]: 14.050 % per organ
Infl:Uninfl [1]: 3.17
binding affinity for neutrophil receptors (neutrophil receptors): greater binding affinity for neutrophil receptors than native fMLP

(Pic-Gly-Cys-Gly)-εNH-Lys(-Gly-OH)-Tyr-Nleu-Phe-Leu-Nleu-for (For-[Nle]LF[Nle]YK([Gly-Cys-Gly-Picolinoyl])G-OH; SMILES CCCC[C@H](NC=O)C(=O)N[C@@H](CC(C)C)C(=O)N[C@@H](Cc1ccccc1)C(=O)N[C@@H](CCCC)C(=O)N[C@@H](Cc1ccc(O)cc1)C(=O)N[C@@H](CCCCNC(=O)CNC(=O)[C@H](CS)NC(=O)CNC(=O)c1ccccn1)C(=O)NCC(=O)O) [RP-022, ID NO: 11]
In vivo Distribution blood [2]: 3.036 % per organ
In vivo Distribution GI tract [2]: 41.285 % per organ
In vivo Distribution liver [2]: 35.26 % per organ
In vivo Distribution kidney [2]: 18.82 % per organ
In vivo Distribution urine [2]: 8.400 % per organ

(Pic-Ser-Cys(Acm)-Gly)-Lys-Pro-Pro-Arg-OH (Picolinoyl-SC(Acm)GKPPR-OH; SMILES CC(=O)NCSC[C@H](NC(=O)[C@H](CO)NC(=O)c1ccccn1)C(=O)NCC(=O)N[C@@H](CCCCN)C(=O)N1CCC[C@H]1C(=O)N1CCC[C@H]1C(=O)N[C@@H](CCCNC(=N)N)C(=O)O) [RP-065, ID NO: 10]
In vivo Distribution blood [2]: 3.520 % per organ
In vivo Distribution urine [2]: 53.000 % per organ
Inflam muscle [1]: 0.125 % per gm
Uninfl muscle [1]: 0.059 % per gm
Infl:Uninfl [1]: 2.1

(Pic-Ser-Cys(Acm)-Gly)-Thr-Lys-Pro-Pro-Arg-OH (Picolinoyl-SC(Acm)GTKPPR-OH; SMILES CC(=O)NCSC[C@H](NC(=O)[C@H](CO)NC(=O)c1ccccn1)C(=O)NCC(=O)N[C@H](C(=O)N[C@@H](CCCCN)C(=O)N1CCC[C@H]1C(=O)N1CCC[C@H]1C(=O)N[C@@H](CCCNC(=N)N)C(=O)O)[C@@H](C)O) [RP-063, ID NO: 9]
In vivo Distribution blood [2]: 6.370 % per organ
In vivo Distribution GI tract [2]: 5.080 % per organ
In vivo Distribution liver [2]: 3.050 % per organ
In vivo Distribution kidney [2]: 4.170 % per organ
In vivo Distribution urine [2]: 44.710 % per organ
Inflam muscle [1]: 0.180 % per gm
Uninfl muscle [1]: 0.050 % per gm
Infl:Uninfl [1]: 3.62

Chel-Gly-Cys(Acm)-Gly-OH (reading uncertain; also: printed as Chel-Gly-Cys(Acm)-Gly-OH) [RP-043, ID NO: 6]
In vivo Distribution blood [2]: 1.016 % per organ
In vivo Distribution GI tract [2]: 52.619 % per organ
In vivo Distribution liver [2]: 0.953 % per organ
In vivo Distribution kidney [2]: 4.359 % per organ
In vivo Distribution urine [2]: 33.950 % per organ

Pic-Gly-Cys(Acm)-Gly-OH (Picolinoyl-Gly-Cys(Acm)-Gly-OH; SMILES CC(=O)NCSC[C@H](NC(=O)CNC(=O)c1ccccn1)C(=O)NCC(=O)O) [RP-049, ID NO: 8]
In vivo Distribution blood [2]: 0.187 % per organ
In vivo Distribution kidney [2]: 21.700 % per organ
Inflam muscle [1]: 0.077 % per gm
Uninfl muscle [1]: 0.019 % per gm
Infl:Uninfl [1]: 4.24
